Reference: the supplement of paper PMC9732359
± gives the uncertainty stated by the source.

Experiment: protein stability index of a GFP-peptide fusion (yeast GPS) (PSI 1-4); higher = more stable; sorted into four equal gates, so the index is relative within each strain
Summary of the method: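 Each library plasmid carries Cherry plus GFP with a tiled 17-residue yeast protein peptide fused downstream, and the pooled library was carried in yeast. Mid-log cultures in leucine-free medium were sorted into four equal gates by GFP/Cherry ratio. Reads from Illumina sequencing of PCR-amplified plasmids from each gate were assigned to strains by barcodes. Per peptide, the protein stability index was computed as the summed products of gate read frequency and gate number.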

In the case of NQMKVAPIPKQLLQRIP [GAL11], the protein stability index (doa10∆) is reported as 2.28 ± 0.07, the protein stability index (pdr5∆) is reported as 2.54 ± 0.062 and the protein stability index (san1∆) is reported as 2.52 ± 0.054. For the same sequence, the protein stability index (ubr1∆) was 2.3 ± 0.043.

In the case of NQTRKAHRNGIKKPKTY [RPL29], the protein stability index (doa10∆) is reported as 2.65 ± 0.083, the protein stability index (pdr5∆) is reported as 2.98 ± 0.072 and the protein stability index (san1∆) is reported as 2.92 ± 0.058. It also gave a protein stability index (ubr1∆) of 2.99 ± 0.063.

Work on NQYKLVFYQVTPEDADE [RPL22B] yielded a protein stability index (doa10∆) of 2.21 ± 0.1, a protein stability index (pdr5∆) of 2.7 ± 0.082 and a protein stability index (san1∆) of 2.34 ± 0.059. For the same sequence, the protein stability index (ubr1∆) was 2.14 ± 0.085.

In the case of NRHNLLNDVVSFLFSAI [SWI1], the protein stability index (doa10∆) is reported as 2.19 ± 0.077, the protein stability index (pdr5∆) is reported as 2.58 ± 0.05 and the protein stability index (san1∆) is reported as 2.4 ± 0.067. The protein stability index (ubr1∆) was 2.4 ± 0.043.

For NRLSRIHLYMLTFHTLK [YLR018C/POM34], the protein stability index (doa10∆) was 1.42 ± 0.068, the protein stability index (pdr5∆) was 1.58 ± 0.06 and the protein stability index (san1∆) was 1.54 ± 0.12. The protein stability index (ubr1∆) was 1.44 ± 0.047.

NRSVVYFKLDLTSDLVY [RRI2] gave a protein stability index (doa10∆) of 1.37 ± 0.14, a protein stability index (pdr5∆) of 1.92 ± 0.28 and a protein stability index (ubr1∆) of 1.39 ± 0.078.

Sequence NSAARNIQHLLYGKRFF [PRE7] has a protein stability index (doa10∆) of 2.13 ± 0.08, a protein stability index (pdr5∆) of 2.72 ± 0.084 and a protein stability index (san1∆) of 2.12 ± 0.1. The protein stability index (ubr1∆) was 2.45 ± 0.076.

In the case of NSANGSSLNGTNAKIPQ [SSN3], the protein stability index (doa10∆) is reported as 2.38 ± 0.071, the protein stability index (pdr5∆) is reported as 2.72 ± 0.071 and the protein stability index (san1∆) is reported as 2.53 ± 0.076. The protein stability index (ubr1∆) was 2.56 ± 0.057.

NSAVNNAISNTQDDFTT [SRP54] showed a protein stability index (doa10∆) of 3.42 ± 0.1, a protein stability index (pdr5∆) of 3.07 ± 0.07 and a protein stability index (san1∆) of 3.04 ± 0.064. It also gave a protein stability index (ubr1∆) of 3.31 ± 0.045.

Sequence NSDHAKFTIEPGVLPVG [SNF2] has a protein stability index (doa10∆) of 2.23 ± 0.046, a protein stability index (pdr5∆) of 2.27 ± 0.054 and a protein stability index (san1∆) of 2.32 ± 0.098. The protein stability index (ubr1∆) was 1.83 ± 0.046.

Sequence NSKPVELKPVSLDNKTL [YJL041W/NSP1] has a protein stability index (doa10∆) of 2.8 ± 0.055, a protein stability index (pdr5∆) of 2.75 ± 0.059 and a protein stability index (san1∆) of 2.69 ± 0.076. For the same sequence, the protein stability index (ubr1∆) was 2.58 ± 0.064.

Sequence NSLAVRGKDCTVVISQK [SCL1] has a protein stability index (doa10∆) of 2.64 ± 0.075, a protein stability index (pdr5∆) of 2.9 ± 0.062 and a protein stability index (san1∆) of 2.94 ± 0.051. The protein stability index (ubr1∆) was 2.72 ± 0.045.

For NSNKQAVAILADDEKSD [BRR2], the protein stability index (doa10∆) was 3.04 ± 0.091, the protein stability index (pdr5∆) was 3.07 ± 0.071 and the protein stability index (san1∆) was 3.03 ± 0.086. The protein stability index (ubr1∆) was 2.88 ± 0.044.

For NSSEKNNNNNNNNNNNN [MED2], the protein stability index (doa10∆) was 3.09 ± 0.058, the protein stability index (pdr5∆) was 3.03 ± 0.058 and the protein stability index (san1∆) was 2.95 ± 0.059. It also gave a protein stability index (ubr1∆) of 3.12 ± 0.053.

In the case of NSSEQESDYEPNNETSV [SIR3], the protein stability index (doa10∆) is reported as 3.11 ± 0.084, the protein stability index (pdr5∆) is reported as 3.27 ± 0.085 and the protein stability index (san1∆) is reported as 3.02 ± 0.063. For the same sequence, the protein stability index (ubr1∆) was 2.84 ± 0.092.

NSTASSSNISPEQVYSL [ARP7] showed a protein stability index (doa10∆) of 2.57 ± 0.05, a protein stability index (pdr5∆) of 2.78 ± 0.046 and a protein stability index (san1∆) of 2.63 ± 0.051. For the same sequence, the protein stability index (ubr1∆) was 2.88 ± 0.039.

For NTENVESVPTPANAEPQ [ITC1], the protein stability index (doa10∆) was 3.11 ± 0.087, the protein stability index (pdr5∆) was 3 ± 0.086 and the protein stability index (san1∆) was 2.96 ± 0.1. It also gave a protein stability index (ubr1∆) of 3.22 ± 0.12.

Work on NTEQGDSDELGGESMEG [SNM1] yielded a protein stability index (doa10∆) of 3.45 ± 0.1, a protein stability index (pdr5∆) of 3.54 ± 0.11 and a protein stability index (san1∆) of 3.4 ± 0.093. The protein stability index (ubr1∆) was 3.39 ± 0.085.

With NTFTWNHSLQHQNESSA [RPN4] the protein stability index (doa10∆) was 3.08 ± 0.056, the protein stability index (pdr5∆) was 3.19 ± 0.055 and the protein stability index (san1∆) was 3.18 ± 0.058. For the same sequence, the protein stability index (ubr1∆) was 3.17 ± 0.037.

In the case of NTGGESVVKKEDNKYAI [RGR1], the protein stability index (doa10∆) is reported as 3.51 ± 0.1, the protein stability index (pdr5∆) is reported as 3.39 ± 0.1 and the protein stability index (san1∆) is reported as 3.33 ± 0.094. The protein stability index (ubr1∆) was 3.4 ± 0.085.
